Where a chain is given by its changes, count along the chain named. Names may count otherwise.
B1: S8-ATX1B6 (antibody, V domains shown)
VH: QVQLVESGGGVVLPGRSLRLSCAASGFTFNIYGMHWVRQAPGKGLEWVAVISYDGNNKEYADSVKGRFTISRDSSRNTLYLQMNSLRAEDTAVYYCAKRGYGSSSLEFWGQGTLVTVSS
VL: DIQMTQSPSSLSASVGDRVTITCRSSQDIRNDLGWYQQKPGKAPKRLIYASSNLQSGVPSRFSGSGSGTEFTLTISSLQPDDFATYYCLQHNTYPYTFGQGTKLEIK
notes: Only variable domains are tied to the name in the text; also made as IgG4 (S228P); also called Sig8-1B6; 11B6
B2: S8-ATX1H4 (antibody, V domains shown)
VH: QVQLVQSGTEVKYPGASVKVSCKASGYTFIDYGISWVRQAPGQGLEWMGWISAYNGNTDYAQKLQGRVTMTTDTSTSTAYMDLRSLRSDDTAVYYCAREGEGYCTYGVCPSFDYWGQGTLVTVSS
VL: EIVLTQSPGTLSLSPGERATLSCRASQSVSSSYLAWYQQKPGQAPRLLIYGASTRGTGIPDRFSGSGSGTDFTLTISRLEPEDFALYYCQQYGSSPYTFGQGTKLEIK
notes: Only variable domains are tied to the name in the text; Produced as recombinant human IgG1 and IgG4 (S228P), kappa light chain; also called Sig8-1H4
B3: S8-ATX1B4 (antibody, V domains shown)
VH: B1 VH with L13Q, N30S, E59D, A61T, S74N, R76K, R87T
VL: B1 VL with S25A, S51T, N53S, G66R, T69A, I75V, D81E
notes: Only variable domains are tied to the name in the text; Produced as recombinant fully human IgG1 and IgG4 (S228P) with a kappa light chain; also called Sig8-1B4; 11B4
B4: S8-ATX1E1 (antibody, V domains shown)
VH: EVQLVESGGGLVQPGRSLRLSCAASGFMFDDYVMHWVRQAPGKGLEWVSGINWNSDNIGYADSVKGRFTISRDNAKNSLFLQMNSLRVEDTALYYCAKDIDAAAFDYWGQGTLVTVSS
VL: DIVMTQSPLSLPVTPGEPASISCRSSQSLLHSNGYSYLAWYLQKPGQSPQLLIYLVSNRASGVPDRFTGSGSGTDFTLKISRVEAEDVGVYYCMQALQTPWTFGQGTKVEIK
notes: Only variable domains are tied to the name in the text; Produced as recombinant human IgG1 and IgG4 (S228P), kappa light chain; also called Sig8-1E1
B5: S8-ATX1E4 (antibody, V domains shown)
VH: QVQLVQSGSELKKPGASVKVSCKTSGYTFTSYAMNWVRQAPGQGLEWMGWINTNTGNPTYAQGFRGRFVFSLDTSVSTAYLQISSLKAEDTAVYYCARDKYSSSWYWFDSWGQGTLVTVSS
VL: DIQMTQSPSSLSASVGDRVTITCRPSQNISSYLNWYQQKPGKAPKLLIYAASSLRSGVPSRFSGSGSGTDFTLTVSSLQPEDFANYYCQQSYSTPYTFGRGTKLEIK
notes: Only variable domains are tied to the name in the text; Produced as recombinant human IgG1 and IgG4 (S228P), kappa light chain; also called Sig8-1E4
B6: S8-ATX2F10 (antibody, V domains shown)
VH: EVQLVESGGDLVKSGGSLRLSCAASGFTFSDAWMSWVRQAPGKGLEWVGRIQSKTDGGTTDYVAPVKGRFTISRDDSKDTLYLHMNSLTTEDTAVYYCTTDLYYYGSGSYFLGQGTLVTVSS
VL: DIQMTQSPSSLSASVGDRVTITCRASQNIITYLNWYQQKPGKAPKLLIYAASSLQSGVPSRFSGSGSGTDFTLTISSLQPEDFAIYHCQQSYNVPTTFGQGTKLEIK
notes: Only variable domains are tied to the name in the text; also IgG4 (S228P); also called Sig8-2F10; S8-2F10
B7: S8-ATX2A3 (antibody, V domains shown)
VH: QVQLQESGPGLVKPSETLSLTCTVSGASISGYYWNWIRQPPGKGLEWIGYIHYSGTTNYNPSLKSRITISLDTSENQFSLRLSSVTAADTAVYYCARDWYTGYDWEGFDYWGQGTLVTVSS
VL: QSVLTQPPSVSGAPGQRVSFSCTGTSSNIGTGFDVHWYRQLPGTAPKVLIYNNNNRPSGVPDRFSASKSGTSASLAITGLQAEDEADYYCQSYDSSLSGSVFGGGTRLTVL
notes: Only variable domains are tied to the name in the text; IgG1 format in ADCC and eosinophil assays; also called Sig8-2A3
B8: negative control mAb 13R4 (recognizing E. coli beta-galactosidase) (antibody, V domains shown)
VH: EVQLVESGGSLVKPGGSLRLSCAASGFTFSNYSMNWVRQAPGKGLEWISSISGSSRYIYYADFVKGRFTISRDNATNSLYLQMNSLRAEDTAVYYCVRSSITIFGGGMDVWGRGTLVTVSS
VL: QSVLTQPASVSGSPGQSITISCAGTSSDVGGYNYVSWYQQHPGKAPKLMIYEDSKRPSGVSNRFSGSKSGNTASLTISGLQAEDEADYYCSSYTTRSTRVFGGGTKLAVLG

Assays:
[1] = target: T1, full-length human Siglec-8 (Siglec-8^FL) (human, UniProt Q9NYZ4 17-499); assay: flow cytometry on K562 cells expressing Siglec-8 FL (FIG. 9C)
T1 construct: whole, on cells; Expressed by lentiviral transduction on K562, RS4;11, TF-1, EOL-1 and other cells; the same id is used for Siglec-8 endogenously expressed on LUVA cells, HMC1.2 cells and primary human eosinophils; also called Siglec-8^Hu; SAF2
T1 sequence (Q9NYZ4 17-499): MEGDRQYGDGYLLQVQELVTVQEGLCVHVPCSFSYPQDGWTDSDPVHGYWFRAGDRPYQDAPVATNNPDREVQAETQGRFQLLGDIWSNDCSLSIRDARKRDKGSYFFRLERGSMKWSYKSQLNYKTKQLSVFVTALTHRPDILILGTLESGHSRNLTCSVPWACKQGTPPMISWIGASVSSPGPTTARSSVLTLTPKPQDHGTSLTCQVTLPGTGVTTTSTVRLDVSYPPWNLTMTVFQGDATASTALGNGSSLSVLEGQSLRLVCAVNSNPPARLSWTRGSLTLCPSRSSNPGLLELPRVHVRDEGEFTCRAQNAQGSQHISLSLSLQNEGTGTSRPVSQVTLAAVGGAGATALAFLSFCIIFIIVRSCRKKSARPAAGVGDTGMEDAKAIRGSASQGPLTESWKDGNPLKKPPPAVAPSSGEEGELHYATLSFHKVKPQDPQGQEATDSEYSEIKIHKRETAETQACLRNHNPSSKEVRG
Experimental: (§1) FIGS. 9A-9D. Human Siglec-8 mAbs were tested flow cytometrically against (FIG. 9A) parental human lymphoid RS4; 11 cells (endogenously lacking Siglec-8 expression) and a subline engineered to express Siglec-8^FL, (FIG. 9B) parental human mast cell line, HMC1.2, enriched for expression of endogenous Siglec-8; and (FIG. 9C) parental human myeloid K562 (endogenously lacking Siglec-8 expression) and sublines of K562 cells engineered to express either Siglec-8^FL, Siglec-8^ΔE2, or Siglec-8^V-set; and (FIG. 9D) primary human eosinophils, as indicated. A negative control without primary mAbs was included, as was, in some experiments, a negative control with a non-binding primary mAb (13R4).

[2] = target: T1, full-length human Siglec-8 (Siglec-8^FL); assay: flow cytometry on Siglec-8-expressing cells, in some experiments of FIGS. 9A-9D
Experimental: as §1

| Binder | binding result [1] | binding result [2] |
| --- | --- | --- |
| B1 | binds | – |
| B2 | binds | – |
| B3 | binds | – |
| B4 | binds | – |
| B5 | binds | – |
| B6 | binds | – |
| B7 | binds | – |
| B8 | – | no binding |
